For series [1], the target named is T1, PcrA (Geobacillus stearothermophilus, UniProt P56255).
T1 construct: recombinant, prepared as described previously
T1 sequence (P56255 1-724): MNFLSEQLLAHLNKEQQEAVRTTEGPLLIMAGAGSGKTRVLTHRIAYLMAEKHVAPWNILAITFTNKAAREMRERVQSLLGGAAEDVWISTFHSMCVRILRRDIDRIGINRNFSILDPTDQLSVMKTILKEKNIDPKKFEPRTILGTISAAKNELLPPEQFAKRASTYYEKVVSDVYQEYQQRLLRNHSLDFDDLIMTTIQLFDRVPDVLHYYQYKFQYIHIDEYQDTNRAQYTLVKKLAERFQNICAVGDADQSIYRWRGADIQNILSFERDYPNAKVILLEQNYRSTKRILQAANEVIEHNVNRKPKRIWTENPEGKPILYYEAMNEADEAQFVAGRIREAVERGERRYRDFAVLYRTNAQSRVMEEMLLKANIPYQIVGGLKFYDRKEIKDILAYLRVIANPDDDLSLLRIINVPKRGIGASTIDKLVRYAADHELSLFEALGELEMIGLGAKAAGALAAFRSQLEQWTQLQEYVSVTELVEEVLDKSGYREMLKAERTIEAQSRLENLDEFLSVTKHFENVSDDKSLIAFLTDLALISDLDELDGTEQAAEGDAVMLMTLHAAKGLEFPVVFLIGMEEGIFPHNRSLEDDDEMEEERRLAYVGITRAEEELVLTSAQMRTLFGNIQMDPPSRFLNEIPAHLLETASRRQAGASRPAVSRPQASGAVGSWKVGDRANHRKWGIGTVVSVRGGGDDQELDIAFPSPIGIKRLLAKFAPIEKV
In words: stopped-flow fluorescence, koff/kon. It counts as binding.

The target of series [2] is T1, PcrA. As to the kind of experiment: stopped-flow fluorescence, quench-flow HPLC, Pi release, single turnover. It counts as biochemical. The following applies: 8 μM PcrA, 10 μM dT20, 2 μM deac-aminoATP; 3 mM MgCl2, pH 7.5; labelled compound.
Substrate in series [3]: CNc1ccccc1C(=O)O[C@H]1C[C@H](n2cnc3c(N)ncnc32)O[C@@H]1COP(=O)(O)OP(=O)(O)OP(=O)(O)O
As to the kind of experiment: steady-state ATPase, MDCC-PBP phosphate release. It counts as biochemical, Deinococcus radiodurans. The following applies: with 500 nM dT20 ssDNA, 10 mM MgCl2, pH 7.5, 20 °C. The text has this:
(§1) steady-state ATPase, MDCC-PBP phosphate release on RecD2

Substrate in series [4]: Nc1ncnc2c1ncn2[C@@H]1O[C@H](COP(=O)(O)OP(=O)(O)OP(=O)(O)O)[C@@H](O)[C@H]1O
In words: steady-state ATPase, MDCC-PBP phosphate release. The following applies: with 500 nM dT20 ssDNA, 10 mM MgCl2, pH 7.5, 20 °C. Format: biochemical, Deinococcus radiodurans.
Excerpt: as §1

For the molecule `CCN(CC)c1ccc2cc(C(=O)N[C@H]3[C@@H](O)[C@H](n4cnc5c(N)ncnc54)O[C@@H]3COP(=O)(O)OP(=O)(O)O)c(=O)oc2c1` [deac-aminoADP], the equilibrium dissociation constant (Kd) in series [1] is 1.7 µM. This counts as single-digit micromolar.
In the case of `CCN(CC)c1ccc2cc(C(=O)N[C@H]3[C@@H](O)[C@H](n4cnc5c(N)ncnc54)O[C@@H]3COP(=O)(O)OP(=O)(O)OP(=O)(O)O)c(=O)oc2c1` [deac-aminoATP, 3′-(7-diethylaminocoumarin-3-carbonylamino)-3′-deoxyadenosine-5′-triphosphate], in series [2], the “stopped-flow fluorescence, quench-flow HPLC, Pi release, single turnover” value was “After mixing excess PcrA·dT20 with deac-aminoATP, there was a biphasic increase in fluorescence”.

B1: RecD2 (Deinococcus radiodurans R1 = ATCC 13939 = DSM 20539) (protein)
chain: SQQGLERRLLAGLQGLGLTINQAQRAVKHFGADALDRLEKDLFTLTEVEGIGFLTADKLWQARGGALDDPRRLTAAAVYALQLAGTQAGHSFLPRSRAEKGVVHYTRVTPGQARLAVETAVELGRLSEDDSPLFAAEAAATGEGRIYLPHVLRAEKKLASLIRTLLATPPADGAGNDDWAVPKKARKGLSEEQASVLDQLAGHRLVVLTGGPGTGKSTTTKAVADLAESLGLEVGLCAPTGKAARRLGEVTGRTASTVHRLLGYGPQGFRHNHLEPAPYDLLIVDEVSMMGDALMLSLLAAVPPGARVLLVGDTDQLPPVDAGLPLLALAQAAPTIKLTQVYRQAAKNPIIQAAHGLLHGEAPAWGDKRLNLTEIEPDGGARRVALMVRELGGPGAVQVLTPMRKGPLGMDHLNYHLQALFNPGEGGVRIAEGEARPGDTVVQTKNDYNNEIFNGTLGMVLKAEGARLTVDFDGNVVELTGAELFNLQLGYALTVHRAQGSEWGTVLGVLHEAHMPMLSRNLVYTALTRARDRFFSAGSASAWQIAAARQREARNTALLERIRAH
notes: N-terminal truncation lacking the first 150 amino acids; recombinant; monomer
On to B1, for which, in series [3], the Km was determined as 12.1 ± 1.7 µM and the kcat amounted to 40.2 ± 2.4 s⁻¹. Besides, in series [4], the Michaelis-Menten constant (Km) was 30.3 ± 1.5 µM and the kcat turned out to be 86.9 ± 1.5 s⁻¹.

For orientation: Kd means a measure of binding affinity in units of concentration. Low values mean higher affinity, high ones lower affinity. As a reminder, the Km is the concentration of substrate that gives half-maximal velocity. For orientation: kcat means the number of substrate molecules converted per active site and unit of time at saturation.

For the origin of these results see paper PMC3757182, “ATPase Mechanism of the 5′-3′ DNA Helicase, RecD2” (The Journal of Biological Chemistry, 2013).
